Assay results from PMC4681132 (Nature, 2015).

T1: Pol III stalk (subunits C17 and C25) (S. cerevisiae, UniProt P47076 1-161; P35718 1-212)
T1 sequence 1: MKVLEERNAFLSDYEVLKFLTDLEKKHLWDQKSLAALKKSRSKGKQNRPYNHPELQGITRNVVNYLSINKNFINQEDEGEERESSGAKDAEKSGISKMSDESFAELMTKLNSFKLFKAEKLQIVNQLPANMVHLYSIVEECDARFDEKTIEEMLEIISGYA
T1 sequence 2: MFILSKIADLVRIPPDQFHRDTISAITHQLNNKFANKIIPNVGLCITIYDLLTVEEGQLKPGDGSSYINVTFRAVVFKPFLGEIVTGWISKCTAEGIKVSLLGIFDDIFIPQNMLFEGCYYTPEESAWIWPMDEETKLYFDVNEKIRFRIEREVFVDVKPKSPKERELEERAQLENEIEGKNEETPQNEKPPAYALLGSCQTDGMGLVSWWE

T2: RNA polymerase III subunit C82 (S. cerevisiae, UniProt P32349 1-654)
T2 sequence: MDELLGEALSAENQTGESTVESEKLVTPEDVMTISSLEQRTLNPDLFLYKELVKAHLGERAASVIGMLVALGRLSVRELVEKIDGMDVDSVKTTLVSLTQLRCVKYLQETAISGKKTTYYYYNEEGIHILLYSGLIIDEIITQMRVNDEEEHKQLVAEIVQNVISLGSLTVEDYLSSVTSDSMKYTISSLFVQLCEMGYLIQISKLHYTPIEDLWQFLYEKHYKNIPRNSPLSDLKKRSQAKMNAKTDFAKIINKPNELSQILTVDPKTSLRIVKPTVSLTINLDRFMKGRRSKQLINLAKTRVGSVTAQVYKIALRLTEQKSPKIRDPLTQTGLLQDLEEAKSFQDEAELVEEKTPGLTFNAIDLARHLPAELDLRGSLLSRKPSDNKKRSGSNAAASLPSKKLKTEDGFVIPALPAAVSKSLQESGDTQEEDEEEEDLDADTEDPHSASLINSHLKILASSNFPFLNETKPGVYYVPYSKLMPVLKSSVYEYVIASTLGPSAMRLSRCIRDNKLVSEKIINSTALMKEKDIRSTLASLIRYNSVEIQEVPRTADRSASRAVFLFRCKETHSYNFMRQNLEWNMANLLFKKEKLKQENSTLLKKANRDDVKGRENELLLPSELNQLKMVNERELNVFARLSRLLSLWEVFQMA

T3: RNA polymerase III subunit C160 (S. cerevisiae, UniProt P04051 1-1460)
T3 sequence: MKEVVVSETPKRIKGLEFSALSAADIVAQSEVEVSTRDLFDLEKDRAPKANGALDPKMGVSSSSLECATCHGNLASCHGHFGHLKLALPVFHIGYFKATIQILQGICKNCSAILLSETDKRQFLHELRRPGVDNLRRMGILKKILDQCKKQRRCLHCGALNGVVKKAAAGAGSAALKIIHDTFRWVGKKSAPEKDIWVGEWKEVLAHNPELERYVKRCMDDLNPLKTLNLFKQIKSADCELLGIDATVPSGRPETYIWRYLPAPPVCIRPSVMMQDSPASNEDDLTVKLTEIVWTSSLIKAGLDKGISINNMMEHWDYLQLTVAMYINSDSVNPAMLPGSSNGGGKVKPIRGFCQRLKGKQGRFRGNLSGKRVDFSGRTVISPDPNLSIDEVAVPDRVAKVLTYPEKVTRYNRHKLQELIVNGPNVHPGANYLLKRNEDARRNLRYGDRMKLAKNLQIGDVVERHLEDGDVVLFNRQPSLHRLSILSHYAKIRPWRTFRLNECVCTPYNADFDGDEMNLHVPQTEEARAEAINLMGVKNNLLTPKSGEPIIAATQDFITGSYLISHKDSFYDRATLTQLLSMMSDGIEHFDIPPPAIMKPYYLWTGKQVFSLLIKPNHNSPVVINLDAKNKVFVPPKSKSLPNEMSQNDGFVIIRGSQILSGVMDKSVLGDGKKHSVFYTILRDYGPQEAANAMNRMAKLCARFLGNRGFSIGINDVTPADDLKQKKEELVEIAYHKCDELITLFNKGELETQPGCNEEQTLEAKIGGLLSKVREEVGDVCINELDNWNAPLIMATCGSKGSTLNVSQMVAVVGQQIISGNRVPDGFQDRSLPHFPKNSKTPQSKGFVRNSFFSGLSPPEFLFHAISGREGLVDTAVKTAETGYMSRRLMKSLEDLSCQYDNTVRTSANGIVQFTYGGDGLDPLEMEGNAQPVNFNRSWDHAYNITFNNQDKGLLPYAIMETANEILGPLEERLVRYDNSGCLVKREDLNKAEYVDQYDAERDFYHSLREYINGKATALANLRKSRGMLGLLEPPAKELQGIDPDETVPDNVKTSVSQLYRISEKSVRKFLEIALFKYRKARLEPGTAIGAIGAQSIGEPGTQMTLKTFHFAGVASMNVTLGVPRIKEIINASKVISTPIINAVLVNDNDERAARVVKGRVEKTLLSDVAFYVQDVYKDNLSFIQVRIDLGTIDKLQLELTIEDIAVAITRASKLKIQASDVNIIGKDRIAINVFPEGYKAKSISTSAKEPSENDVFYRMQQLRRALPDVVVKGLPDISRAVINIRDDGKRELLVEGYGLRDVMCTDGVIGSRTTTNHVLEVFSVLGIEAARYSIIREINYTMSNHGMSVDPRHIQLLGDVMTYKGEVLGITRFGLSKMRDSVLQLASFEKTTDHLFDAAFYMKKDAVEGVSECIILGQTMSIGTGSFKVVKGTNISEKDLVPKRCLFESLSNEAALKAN

T4: RNA polymerase III subunit C37 (S. cerevisiae, UniProt P36121 1-282)
T4 sequence: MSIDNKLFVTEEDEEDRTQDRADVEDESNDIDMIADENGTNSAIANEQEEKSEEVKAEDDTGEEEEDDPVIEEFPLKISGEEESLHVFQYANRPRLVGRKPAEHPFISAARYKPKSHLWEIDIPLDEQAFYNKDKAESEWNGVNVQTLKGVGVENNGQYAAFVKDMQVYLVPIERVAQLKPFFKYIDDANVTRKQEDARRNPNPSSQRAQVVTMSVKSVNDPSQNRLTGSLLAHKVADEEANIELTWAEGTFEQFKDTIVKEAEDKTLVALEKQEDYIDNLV

T5: RNA polymerase III subunit C128 (S. cerevisiae, UniProt P22276 1-1149)
T5 sequence: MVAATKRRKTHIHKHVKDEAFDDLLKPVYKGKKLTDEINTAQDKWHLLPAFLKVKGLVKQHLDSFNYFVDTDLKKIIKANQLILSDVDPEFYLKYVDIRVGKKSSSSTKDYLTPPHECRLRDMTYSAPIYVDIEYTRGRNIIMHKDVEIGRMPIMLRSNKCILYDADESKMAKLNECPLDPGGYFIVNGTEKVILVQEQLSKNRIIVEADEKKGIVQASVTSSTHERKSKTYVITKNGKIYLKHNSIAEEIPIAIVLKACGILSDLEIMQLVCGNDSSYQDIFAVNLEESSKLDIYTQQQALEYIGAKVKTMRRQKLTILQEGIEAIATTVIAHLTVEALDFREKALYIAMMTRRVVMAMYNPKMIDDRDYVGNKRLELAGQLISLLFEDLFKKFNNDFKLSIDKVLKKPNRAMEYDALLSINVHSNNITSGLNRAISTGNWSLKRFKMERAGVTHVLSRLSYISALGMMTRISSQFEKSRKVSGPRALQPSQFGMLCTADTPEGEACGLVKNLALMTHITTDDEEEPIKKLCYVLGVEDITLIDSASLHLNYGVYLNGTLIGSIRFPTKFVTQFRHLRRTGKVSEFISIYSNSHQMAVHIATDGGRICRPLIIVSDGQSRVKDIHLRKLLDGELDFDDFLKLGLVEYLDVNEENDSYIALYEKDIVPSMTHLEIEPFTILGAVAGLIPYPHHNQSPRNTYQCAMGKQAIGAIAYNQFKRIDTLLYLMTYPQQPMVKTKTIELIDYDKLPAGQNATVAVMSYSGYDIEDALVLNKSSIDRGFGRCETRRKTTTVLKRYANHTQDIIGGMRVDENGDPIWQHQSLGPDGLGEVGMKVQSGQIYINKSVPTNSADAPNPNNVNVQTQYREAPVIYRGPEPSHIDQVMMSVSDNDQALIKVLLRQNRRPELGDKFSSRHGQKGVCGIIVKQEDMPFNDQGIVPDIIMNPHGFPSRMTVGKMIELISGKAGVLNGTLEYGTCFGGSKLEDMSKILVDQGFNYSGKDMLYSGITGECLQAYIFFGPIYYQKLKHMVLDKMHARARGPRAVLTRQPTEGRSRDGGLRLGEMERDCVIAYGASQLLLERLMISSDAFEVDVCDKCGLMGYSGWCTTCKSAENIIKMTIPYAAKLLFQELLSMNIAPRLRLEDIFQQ


Legend:
Assay in all cases: cryo-EM structure
[1] = target: T1, Pol III stalk (subunits C17 and C25)
[2] = target: T2, RNA polymerase III subunit C82
[3] = target: T3, RNA polymerase III subunit C160
[4] = target: T4, RNA polymerase III subunit C37
[5] = target: T5, RNA polymerase III subunit C128

binding result [1]	binding result [2]	binding result [3]	binding result [4]	binding result [5]	Binder
binds	binds	–	–	–	RNA polymerase III subunit C31 (natural protein, S. cerevisiae, UniProt P17890 1-251, looked up) MSSYRGGSRGGGSNYMSNLPFGLGYGDVGKNHITEFPSIPLPINGPITNKERSLAVKYINFGKTVKDGPFYTGSMSLIIDQQENSKSGKRKPNIILDEDDTNDGIERYSDKYLKKRKIGISIDDHPYNLNLFPNELYNVMGINKKKLLAISKFNNADDVFTGTGLQDENIGLSMLAKLKELAEDVDDASTGDGAAKGSKTGEGEDDDLADDDFEEDEDEEDDDDYNAEKYFNNGDDDDYGDEEDPNEEAAF
–	binds	binds	–	–	RNA polymerase III subunit C34 (natural protein, S. cerevisiae) MSGMIENGLQLSDNAKTLHSQMMSKGIGALFTQQELQKQMGIGSLTDLMSIVQELLDKNLIKLVKQNDELKFQGVLESEAQKKATMSAEEALVYSYIEASGREGIWSKTIKARTNLHQHVVLKCLKSLESQRYVKSVKSVKFPTRKIYMLYSLQPSVDITGGPWFTDGELDIEFINSLLTIVWRFISENTFPNGFKNFENGPKKNVFYAPNVKNYSTTQEILEFITAAQVANVELTPSNIRSLCEVLVYDDKLEKVTHDCYRVTLESILQMNQGEGEPEAGNKALEDEEEFSIFNYFKMFPASKHDKEVVYFDEWTI
–	–	binds	binds	binds	RNA polymerase III subunit C11 (natural protein, S. cerevisiae) MLSFCPSCNNMLLITSGDSGVYTLACRSCPYEFPIEGIEIYDRKKLPRKEVDDVLGGGWDNVDQTKTQCPNYDTCGGESAYFFQLQIRSADEPMTTFYKCVNCGHRWKEN
